The target in the assay is recombinant XIAP, I. scapularis (as used in the native gel, the plate-coated ELISA and the ubiquitylation assay) (I. scapularis). The assay can be described thus: ELISA; 0.2 μg of XIAP coated on the plate (0.5 M carbonate-bicarbonate pH 9.5); increasing concentrations of Bendless, room temperature 1 hour; detected with α-UbcH13.

With “recombinant Bendless, I. scapularis (enzyme)”, the concentration at saturation of binding came out at 9.1 µM.
